Reference: patent US20210032299A1
Starred links: 1 amine or outer side, 2 acyl side, 3 side chain; linkers in the order of their positions; H or OH if unused. Non-standard residues stand in square brackets, D forms with d. Groups on a side chain read outwards from the residue. No end group written: not given here. *: point of attachment. C20 diacid = O=C(O)CCCCCCCCCCCCCCCCCCC(=O)*; αMePhe(2-F) = C[C@](N)(Cc1ccccc1F)C(=O)O; γGlu = O=C(O)[C@H](CCC(=O)[*:2])N[*:1]; αMeF = C[C@](N)(Cc1ccccc1)C(=O)O; 4Pal = N[C@@H](Cc1ccncc1)C(=O)O; αMeL = CC(C)C[C@](C)(N)C(=O)O; AEEA = NCCOCCOCC(=O)O; Aib = CC(C)(N)C(=O)O

T1: human glucose-dependent insulinotropic polypeptide (GIP) receptor (human), P48546
T1 chain: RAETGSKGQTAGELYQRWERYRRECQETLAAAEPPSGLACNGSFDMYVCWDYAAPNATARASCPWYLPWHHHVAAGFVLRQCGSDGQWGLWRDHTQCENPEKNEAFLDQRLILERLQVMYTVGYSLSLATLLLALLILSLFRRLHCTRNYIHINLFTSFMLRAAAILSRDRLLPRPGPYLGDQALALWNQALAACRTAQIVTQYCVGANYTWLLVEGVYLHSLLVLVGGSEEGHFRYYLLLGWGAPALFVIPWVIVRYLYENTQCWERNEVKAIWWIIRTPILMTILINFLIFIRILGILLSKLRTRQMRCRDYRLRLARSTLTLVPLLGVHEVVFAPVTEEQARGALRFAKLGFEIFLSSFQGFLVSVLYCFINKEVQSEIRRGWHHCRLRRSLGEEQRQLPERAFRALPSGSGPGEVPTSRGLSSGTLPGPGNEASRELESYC

T2: human GLP-1 receptor (human), P43220
T2 chain: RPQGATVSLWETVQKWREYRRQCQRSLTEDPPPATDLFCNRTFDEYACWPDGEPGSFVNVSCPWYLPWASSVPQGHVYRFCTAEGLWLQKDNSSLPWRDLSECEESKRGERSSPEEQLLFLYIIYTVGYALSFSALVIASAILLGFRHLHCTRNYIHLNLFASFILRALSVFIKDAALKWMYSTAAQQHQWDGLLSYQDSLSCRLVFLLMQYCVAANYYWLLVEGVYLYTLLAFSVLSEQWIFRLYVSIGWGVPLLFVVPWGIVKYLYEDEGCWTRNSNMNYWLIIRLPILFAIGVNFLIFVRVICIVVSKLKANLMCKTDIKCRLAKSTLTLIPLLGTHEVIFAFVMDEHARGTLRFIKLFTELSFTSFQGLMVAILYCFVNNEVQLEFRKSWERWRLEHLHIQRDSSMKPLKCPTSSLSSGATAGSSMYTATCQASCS


Key:
[1] = target: T1, human glucose-dependent insulinotropic …; assay: SPA, displacement of [125I]-GIP from hGIPR membranes, 0.1% bacitracin
[2] = target: human glucagon receptor (human), P47871; assay: SPA, displacement of [125I]-Gcg from hGcgR membranes, 0.1% bacitracin
human glucagon receptor (human), P47871, sequence (P47871 26-477): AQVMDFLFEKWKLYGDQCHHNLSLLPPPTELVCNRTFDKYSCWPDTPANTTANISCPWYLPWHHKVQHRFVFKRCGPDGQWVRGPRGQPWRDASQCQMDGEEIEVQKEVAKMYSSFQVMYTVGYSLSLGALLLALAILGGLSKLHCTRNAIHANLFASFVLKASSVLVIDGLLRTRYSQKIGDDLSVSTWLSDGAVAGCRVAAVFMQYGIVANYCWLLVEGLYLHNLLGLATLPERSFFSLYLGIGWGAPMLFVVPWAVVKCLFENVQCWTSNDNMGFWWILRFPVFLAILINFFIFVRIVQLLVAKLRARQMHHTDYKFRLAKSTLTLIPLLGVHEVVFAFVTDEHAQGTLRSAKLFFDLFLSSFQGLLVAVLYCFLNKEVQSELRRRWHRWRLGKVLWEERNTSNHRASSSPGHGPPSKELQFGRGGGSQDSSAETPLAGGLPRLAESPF

[3] = target: T2, human GLP-1 receptor (human), P43220; assay: SPA, displacement of [125I]-GLP-1 from hGLP-1R membranes, 0.1% bacitracin

Binder | Ki [1] | Ki [2] | Ki [3]
Y[Aib]EGTFISDYSI[αMeL]LDKIHQ[Aib]DFVEYK([AEEA-AEEA-γGlu-C20 diacid])LEAGPSSGAPPPS-NH2 (N-terminus assumed; SMILES CC[C@H](C)[C@H](NC(=O)[C@H](CCCCN)NC(=O)[C@H](CC(=O)O)NC(=O)[C@H](CC(C)C)NC(=O)[C@](C)(CC(C)C)NC(=O)[C@@H](NC(=O)[C@H](CO)NC(=O)[C@H](Cc1ccc(O)cc1)NC(=O)[C@H](CC(=O)O)NC(=O)[C@H](CO)NC(=O)[C@@H](NC(=O)[C@H](Cc1ccccc1)NC(=O)[C@@H](NC(=O)CNC(=O)[C@H](CCC(=O)O)NC(=O)C(C)(C)NC(=O)[C@@H](N)Cc1ccc(O)cc1)[C@@H](C)O)[C@@H](C)CC)[C@@H](C)CC)C(=O)N[C@@H](Cc1c[nH]cn1)C(=O)N[C@@H](CCC(N)=O)C(=O)NC(C)(C)C(=O)N[C@@H](CC(=O)O)C(=O)N[C@@H](Cc1ccccc1)C(=O)N[C@H](C(=O)N[C@@H](CCC(=O)O)C(=O)N[C@@H](Cc1ccc(O)cc1)C(=O)N[C@@H](CCCCNC(=O)COCCOCCNC(=O)COCCOCCNC(=O)CC[C@H](NC(=O)CCCCCCCCCCCCCCCCCCC(=O)O)C(=O)O)C(=O)N[C@@H](CC(C)C)C(=O)N[C@@H](CCC(=O)O)C(=O)N[C@@H](C)C(=O)NCC(=O)N1CCC[C@H]1C(=O)N[C@@H](CO)C(=O)N[C@@H](CO)C(=O)NCC(=O)N[C@@H](C)C(=O)N1CCC[C@H]1C(=O)N1CCC[C@H]1C(=O)N1CCC[C@H]1C(=O)N[C@@H](CO)C(N)=O)C(C)C) [Example 117] | 0.0722 nM | 685 nM | 591 nM
Y[Aib]EGT[αMePhe(2-F)]ISDYSIALDKIHQ[Aib]EFVNYK([AEEA-AEEA-γGlu-C20 diacid])LAGGPSSGAPPPS-NH2 (N-terminus assumed; SMILES CC[C@H](C)[C@H](NC(=O)[C@H](CO)NC(=O)[C@H](Cc1ccc(O)cc1)NC(=O)[C@H](CC(=O)O)NC(=O)[C@H](CO)NC(=O)[C@@H](NC(=O)[C@](C)(Cc1ccccc1F)NC(=O)[C@@H](NC(=O)CNC(=O)[C@H](CCC(=O)O)NC(=O)C(C)(C)NC(=O)[C@@H](N)Cc1ccc(O)cc1)[C@@H](C)O)[C@@H](C)CC)C(=O)N[C@@H](C)C(=O)N[C@@H](CC(C)C)C(=O)N[C@@H](CC(=O)O)C(=O)N[C@@H](CCCCN)C(=O)N[C@H](C(=O)N[C@@H](Cc1c[nH]cn1)C(=O)N[C@@H](CCC(N)=O)C(=O)NC(C)(C)C(=O)N[C@@H](CCC(=O)O)C(=O)N[C@@H](Cc1ccccc1)C(=O)N[C@H](C(=O)N[C@@H](CC(N)=O)C(=O)N[C@@H](Cc1ccc(O)cc1)C(=O)N[C@@H](CCCCNC(=O)COCCOCCNC(=O)COCCOCCNC(=O)CC[C@H](NC(=O)CCCCCCCCCCCCCCCCCCC(=O)O)C(=O)O)C(=O)N[C@@H](CC(C)C)C(=O)N[C@@H](C)C(=O)NCC(=O)NCC(=O)N1CCC[C@H]1C(=O)N[C@@H](CO)C(=O)N[C@@H](CO)C(=O)NCC(=O)N[C@@H](C)C(=O)N1CCC[C@H]1C(=O)N1CCC[C@H]1C(=O)N1CCC[C@H]1C(=O)N[C@@H](CO)C(N)=O)C(C)C)[C@@H](C)CC) [Example 98] | 0.0195 nM | 38.4 nM | 311 nM
Y[Aib]EGT[αMeF]ISDYSIALDKIHQ[Aib]EFVNYK([AEEA-AEEA-γGlu-C20 diacid])LAGGPSSGAPPPS-NH2 (N-terminus assumed; SMILES CC[C@H](C)[C@H](NC(=O)[C@H](CO)NC(=O)[C@H](Cc1ccc(O)cc1)NC(=O)[C@H](CC(=O)O)NC(=O)[C@H](CO)NC(=O)[C@@H](NC(=O)[C@](C)(Cc1ccccc1)NC(=O)[C@@H](NC(=O)CNC(=O)[C@H](CCC(=O)O)NC(=O)C(C)(C)NC(=O)[C@@H](N)Cc1ccc(O)cc1)[C@@H](C)O)[C@@H](C)CC)C(=O)N[C@@H](C)C(=O)N[C@@H](CC(C)C)C(=O)N[C@@H](CC(=O)O)C(=O)N[C@@H](CCCCN)C(=O)N[C@H](C(=O)N[C@@H](Cc1c[nH]cn1)C(=O)N[C@@H](CCC(N)=O)C(=O)NC(C)(C)C(=O)N[C@@H](CCC(=O)O)C(=O)N[C@@H](Cc1ccccc1)C(=O)N[C@H](C(=O)N[C@@H](CC(N)=O)C(=O)N[C@@H](Cc1ccc(O)cc1)C(=O)N[C@@H](CCCCNC(=O)COCCOCCNC(=O)COCCOCCNC(=O)CC[C@H](NC(=O)CCCCCCCCCCCCCCCCCCC(=O)O)C(=O)O)C(=O)N[C@@H](CC(C)C)C(=O)N[C@@H](C)C(=O)NCC(=O)NCC(=O)N1CCC[C@H]1C(=O)N[C@@H](CO)C(=O)N[C@@H](CO)C(=O)NCC(=O)N[C@@H](C)C(=O)N1CCC[C@H]1C(=O)N1CCC[C@H]1C(=O)N1CCC[C@H]1C(=O)N[C@@H](CO)C(N)=O)C(C)C)[C@@H](C)CC) [Example 97] | 0.0249 nM | 77.5 nM | 570 nM
H-Y[Aib]EGT[αMePhe(2-F)]ISDYSILLDKIHQ[Aib]DFVE[4Pal]K([AEEA-AEEA-γGlu-C20 diacid])LEGGPSSGAPPPS-NH2 (SMILES CC[C@H](C)[C@H](NC(=O)[C@H](CO)NC(=O)[C@H](Cc1ccc(O)cc1)NC(=O)[C@H](CC(=O)O)NC(=O)[C@H](CO)NC(=O)[C@@H](NC(=O)[C@](C)(Cc1ccccc1F)NC(=O)[C@@H](NC(=O)CNC(=O)[C@H](CCC(=O)O)NC(=O)C(C)(C)NC(=O)[C@@H](N)Cc1ccc(O)cc1)[C@@H](C)O)[C@@H](C)CC)C(=O)N[C@@H](CC(C)C)C(=O)N[C@@H](CC(C)C)C(=O)N[C@@H](CC(=O)O)C(=O)N[C@@H](CCCCN)C(=O)N[C@H](C(=O)N[C@@H](Cc1c[nH]cn1)C(=O)N[C@@H](CCC(N)=O)C(=O)NC(C)(C)C(=O)N[C@@H](CC(=O)O)C(=O)N[C@@H](Cc1ccccc1)C(=O)N[C@H](C(=O)N[C@@H](CCC(=O)O)C(=O)N[C@@H](Cc1ccncc1)C(=O)N[C@@H](CCCCNC(=O)COCCOCCNC(=O)COCCOCCNC(=O)CC[C@H](NC(=O)CCCCCCCCCCCCCCCCCCC(=O)O)C(=O)O)C(=O)N[C@@H](CC(C)C)C(=O)N[C@@H](CCC(=O)O)C(=O)NCC(=O)NCC(=O)N1CCC[C@H]1C(=O)N[C@@H](CO)C(=O)N[C@@H](CO)C(=O)NCC(=O)N[C@@H](C)C(=O)N1CCC[C@H]1C(=O)N1CCC[C@H]1C(=O)N1CCC[C@H]1C(=O)N[C@@H](CO)C(N)=O)C(C)C)[C@@H](C)CC) [Example 119] | 0.129 nM | 68.8 nM | 723 nM
